In patent US20060003931A1:

What was measured:
[1] = biological target: Met-IgG fusion protein (Homo sapiens (Human)) (UniProt P08581); assay: HGF β/Met-IgG competition ELISA; tracer biotinylated HGF β
[2] = biological target: Met-IgG fusion protein (Homo sapiens (Human)) (UniProt P08581); assay: HGF β/Met-IgG competition ELISA; tracer 250 nM biotinylated wildtype HGF β

Chain of UniProt P08581 (P08581 25-930 limits assumed, form in doubt): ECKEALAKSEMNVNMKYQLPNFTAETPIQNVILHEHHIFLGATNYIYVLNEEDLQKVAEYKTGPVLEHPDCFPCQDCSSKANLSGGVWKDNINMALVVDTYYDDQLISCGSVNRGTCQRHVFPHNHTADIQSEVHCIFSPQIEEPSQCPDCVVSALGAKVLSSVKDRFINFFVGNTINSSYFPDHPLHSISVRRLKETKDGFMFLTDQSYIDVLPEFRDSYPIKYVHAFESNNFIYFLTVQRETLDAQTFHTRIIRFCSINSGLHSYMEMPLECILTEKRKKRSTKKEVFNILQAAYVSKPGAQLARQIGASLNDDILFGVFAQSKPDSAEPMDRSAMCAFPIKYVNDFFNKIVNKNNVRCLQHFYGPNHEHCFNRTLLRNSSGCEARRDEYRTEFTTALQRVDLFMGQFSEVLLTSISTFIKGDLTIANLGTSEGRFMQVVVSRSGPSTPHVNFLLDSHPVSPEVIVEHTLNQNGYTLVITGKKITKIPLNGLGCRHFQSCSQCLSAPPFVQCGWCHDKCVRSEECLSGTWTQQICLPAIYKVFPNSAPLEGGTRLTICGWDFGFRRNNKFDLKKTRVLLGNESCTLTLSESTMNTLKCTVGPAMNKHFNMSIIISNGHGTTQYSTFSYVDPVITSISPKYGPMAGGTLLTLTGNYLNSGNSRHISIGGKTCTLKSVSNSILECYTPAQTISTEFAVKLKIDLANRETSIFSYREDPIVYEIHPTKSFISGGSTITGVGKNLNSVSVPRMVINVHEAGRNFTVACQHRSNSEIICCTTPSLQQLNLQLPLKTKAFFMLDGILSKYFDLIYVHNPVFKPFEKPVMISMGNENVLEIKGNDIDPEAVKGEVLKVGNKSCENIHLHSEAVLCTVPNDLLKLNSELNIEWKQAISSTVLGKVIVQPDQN

relative IC50 (normalized to HGF β) (relative to HGF β) [1]: 21
IC50 [2]: 11.6 µM
fold reduced binding against HGF β [2]: 13.5 fold
Substance: proHGF β (HGF residues Asn479 to Ser728 with R494E) (from UniProt P14210 479-728) (ligand)
